Key:
[1] = tested on: dual-tropic R5/X4 HIV-1 HE; assay: HIV-1 HE infection of PBMCs, p24; format: cell-based
R5 SM145 = assay: TZM-bl luciferase assay, SM145; format: cell-based, HIV-1; settings: read-out: IC50 TZM-bl R5 SM145 n = 2
R5 DJ259 = assay: TZM-bl luciferase assay, DJ259; format: cell-based, HIV-1; settings: read-out: IC50 TZM-bl R5 DJ259 n = 2
X4 HIV-1 NL4.3 WT = assay: TZM-bl luciferase assay, NL4.3 WT; format: cell-based
R5 HIV-1 BaL virus = assay: TZM-bl luciferase assay, BaL; format: cell-based; settings: read-out: IC50 R5 HIV-1 BaL virus in TZM-bl cells
[2] = tested on: dual-tropic R5/X4 HIV-1 HE; assay: TZM-bl luciferase assay, HE; format: cell-based
[3] = tested on: dual-tropic R5/X4 HIV-2 ROD; assay: TZM-bl luciferase assay, HIV-2 ROD; format: cell-based
CD4 [4] = biological target: T1, CD4 (Homo sapiens, UniProt P01730); assay: FACS binding of CD4 Nanobody 3F11 to human cells; settings: CD8+ T cells isolated from human PBMCs
Experimental: The EC50 values results are depicted in Table 2.4. […] To confirm the specificity of the anti-CD4 Nanobody, binding of 03F11 was also assessed to cytotoxic CD8^+ T cells isolated from human PBMCs using the CD8 T Cell Isolation Kit (Miltenyi Biotech, Cat. 130-096-495), resulting in 94% purity of CD8^+ cells.

CD4 [5] = biological target: T1, CD4; assay: Flow cytometry binding of purified CD4 Nanobodies to Jurkat and THP-1 cells; settings: 100 nM Nanobody
Experimental: Murine Ba/F3 myeloid cells were used as negative control cells. Purified Nanobodies (100 nM) were allowed to bind to 10^5 cells for 30 minutes at 4° C. in a final volume of 100 μl of 10% FBS (Invitrogen, Cat 10270-106) in PBS (Invitrogen #14190). Bound Nanobodies were detected with mouse anti-myc antibody (Serotec, Cat#MCA2200) followed by goat anti-mouse-PE antibody (Jackson #115-115-164). Dead cells percentage population was determined by staining the cells with TOPRO3 (Molecular probes T3605). Using a BD FACS Array Bioanalyzer system, a PE filter 585/42 and a Topro filter 661/16, twenty thousand events were acquired. TOPRO3+ cells were excluded, and the mean channel fluorescence (MCF) was calculated. Expression of CD4 in Jurkat and THP-1 cells was confirmed by using 10 μg/ml of an anti-CD4 monoclonal antibody (Diaclone, clone B-A1 cat#854.030.000). Staining of the cells with anti-myc and/or the goat anti mouse-PE antibodies antibody was performed as negative controls.

[6] = biological target: interaction of CD4 with the viral gp120 protein (Homo sapiens, UniProt P01730); assay: ELISA-based competition of CD4-gp120 interaction; format: binding; settings: 500 nM Nanobody; gp120 HIV-1 IIIB
Experimental: Besides its role on T-cells, CD4 also serves as primary receptor for HIV entry. Therefore purified CD4 Nanobodies were analysed for the capacity to block the interaction of CD4 with the viral gp120 protein. Monovalent His-tagged Nanobodies were purified from periplasmic extracts by affinity and desalting chromatography and used in an ELISA-based competition setup. In short, 1 μg/ml of gp120 HIV-1 IIIB (Immunodiagnostic) was captured by 20 μg/ml of sheep anti-gp120 antibody D7324 (Aalto Bio Reagents) previously coated in 96 well Maxisorp microtiter plates (Nunc) and blocked with 1% casein in PBS. In parallel, 0.5 μg/ml of biotinylated CD4 was incubated with 500 nM of the different purified Nanobodies in 100 μl 0.1% Casein/PBS. After 1 hour, the biotinylated CD4-Nanobody pre-mixes were incubated 1 hour with the captured gp120. Bound biotinylated CD4 was detected using HRP-conjugated Extravidin (Sigma E2886). A blocking mouse anti-CD4 IgG2a antibody (Diaclone, clone B-A1 cat#854.030.000) was used as positive control. Blocking activity was determined as loss of O.D. signal, as compared to wells where no Nanobody was added.

HIV-1 X4 NL4.3 strain = assay: HIV-1 NL4.3 infection of PHA-stimulated PBMCs, p24 Ag ELISA; format: cell-based
CXCR4 [7] = biological target: T2, CXCR4 (Homo sapiens, UniProt P61073); assay: Inhibition of SDF-1 mediated chemotaxis; format: cell-based; settings: average of 3
T2 sequence (P61073 whole entry): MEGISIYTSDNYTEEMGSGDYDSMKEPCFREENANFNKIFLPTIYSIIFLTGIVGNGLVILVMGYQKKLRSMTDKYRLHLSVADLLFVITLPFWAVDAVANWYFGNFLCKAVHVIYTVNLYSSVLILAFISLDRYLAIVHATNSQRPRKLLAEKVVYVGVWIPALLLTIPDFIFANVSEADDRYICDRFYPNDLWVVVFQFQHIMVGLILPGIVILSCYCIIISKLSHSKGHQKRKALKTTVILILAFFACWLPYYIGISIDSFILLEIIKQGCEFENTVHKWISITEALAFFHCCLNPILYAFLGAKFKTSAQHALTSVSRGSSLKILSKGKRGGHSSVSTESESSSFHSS
Experimental: As chemoattractant a concentration of 750 pM SDF-1α (R&D Systems) was used on 100,000 cells/well for the Jurkat cell line, and 500,000 cells/well for the MOLM-13 cell line. SDF-1α and serially diluted Nanobody constructs were added to the bottom of a small chemotaxis plate (Neuprobe 106-5) in a total volume of 29 μl. A chemotaxis filter membrane (ChemoTx® Disposibla, pore size 5 μm) was placed on top of the wells, ensuring that the membrane was in contact with the solution in the wells below. A Nanobody dilution (10 μl at 5× the serially diluted final concentration as below the membrane in each well) was added on top of the membrane, followed by 40 μl of cell suspension. The plates were incubated for 3 hours at 37° C. in a humidified incubator (5% CO2). After incubation, the filters were carefully removed and the cells in the well below were resuspended in the existing solution. The complete cell suspension was transferred to the corresponding wells of white polystyrene Costar plates. After this, 30 μl of Cell Titer Glo reagent (Promega G7571) was added to each well, followed by a 10 minute incubation, with shaking in the dark. Luminescence was measured (1 sec/well) using an Envision 2103 Multilabel Reader with emission filter 700 (Perkin Elmer). […]

CXCR4 [8] = biological target: T2, CXCR4; assay: CXCL12-AF647 binding inhibition on SupT1 cells by flow cytometry; settings: T-cells (SUPT-1)
CXCR4 [9] = biological target: T2, CXCR4; assay: Inhibition of SDF-1 induced Ca2+ signaling in U87.CD4.CXCR4 cells (FLIPR); format: cell-based
HUT-78/HIV-1 NL4.3 = assay: HIV-1-mediated cell-cell fusion, HUT-78/NL4.3 with SupT1 cells; settings: read-out: IC50 cell-cell fusion
cynomolgus CD4 = cynomolgus CD4 (Macaca fascicularis, UniProt P79185); assay: Binding of 3F11 to cynomolgus CD4+ HSC-F T cells, flow cytometry; settings: HSC-F T cell line
cynomolgus CD4, sequence (P79185 26-458): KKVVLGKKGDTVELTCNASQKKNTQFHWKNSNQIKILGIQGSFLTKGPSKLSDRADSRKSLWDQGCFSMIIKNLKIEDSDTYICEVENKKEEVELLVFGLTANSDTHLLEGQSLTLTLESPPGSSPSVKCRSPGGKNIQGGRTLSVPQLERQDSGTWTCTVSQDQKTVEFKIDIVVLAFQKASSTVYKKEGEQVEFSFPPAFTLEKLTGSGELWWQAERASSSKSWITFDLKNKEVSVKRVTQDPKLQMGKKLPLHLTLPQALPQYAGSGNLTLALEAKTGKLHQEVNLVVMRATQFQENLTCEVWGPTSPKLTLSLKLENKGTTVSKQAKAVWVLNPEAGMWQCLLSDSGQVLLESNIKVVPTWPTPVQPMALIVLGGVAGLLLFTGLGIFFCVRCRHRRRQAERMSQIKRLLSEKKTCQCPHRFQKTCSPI

Q: What does the source list for maraviroc [AMD14031]?
A: IC50 dual-tropic R5/X4 HIV-1 HE in PBMCs [1]: never showed any significant anti-HIV-1 HE activity; IC50 (R5 SM145): 2.82 µM; IC50 (R5 DJ259): 7.54 µM; IC50 X4 HIV-1 NL4.3 in TZM-bl cells (X4 HIV-1 NL4.3 WT): did not block; IC50 (R5 HIV-1 BaL virus): 4.2 µM; activity against R5/X4 HIV-1 HE in TZM-bl cells [2]: did not block; activity against R5/X4 HIV-2 ROD in TZM-bl cells [3]: did not block

B1: 3F11: anti-CD4 Nanobody, SEQ ID NO: 20 (protein)
VHH: EVQLVESGGGSVQPGGSLTLSCGTSGRTFNVMGWFRQAPGKEREFVAAVRWSSTGIYYTQYADSVKSRFTISRDNAKNTVYLEMNSLKPEDTAVYYCAADTYNSNPARWDGYDFRGQGTQVTVSS
modifications: Nanobody Sequence
Q: Which results are given for B1?
A: binding to cytotoxic CD8+ T cells (CD4 [4]): No binding; binding to CD4 expressed on a cell surface (CD4 [5]): highest binding signal on THP-1 cells; blocking of in vitro interaction of CD4 with gp120 [6]: block; IC50 HIV-1 NL4.3 in PBMC (HIV-1 X4 NL4.3 strain): weakly active; IC50 dual-tropic R5/X4 HIV-1 HE in PBMCs [1]: not active; Inhibition of SDF-1a-mediated chemotaxis IC50 MOLM-13 cells (CXCR4 [7]): did not have any effect on SDF-1 function; IC50 of blocking CXCL12AF647 binding to CXCR4 (CXCR4 [8]): did not interfere; IC50 of CXCL-12-induced Ca2+-signaling inhibition (CXCR4 [9]): no CXCL-12-induced Ca^2+-signaling inhibition; IC50 (HUT-78/HIV-1 NL4.3): 2.7 µM; binding to cynomolgus CD4 (cynomolgus CD4): cross-reactive to cynomolgus CD4
